From patent publication US20200140501A1 (published 2020) come the findings set out here.

The target in the assay is T1, hNGAL lipocalin mutein SEQ ID NO: 1.
T1 chain: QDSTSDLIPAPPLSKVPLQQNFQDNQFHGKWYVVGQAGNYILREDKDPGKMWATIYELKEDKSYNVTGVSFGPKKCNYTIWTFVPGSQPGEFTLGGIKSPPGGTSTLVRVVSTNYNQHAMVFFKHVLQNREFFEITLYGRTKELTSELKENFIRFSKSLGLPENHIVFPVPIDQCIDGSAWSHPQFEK
Put plainly: solution competition ELISA: ligand titrated against 0.1 nM SEQ ID NO: 1, free mutein captured on immobilised hAng-2. Here is the method:
In the following detailed experimental protocol, incubation and washing steps were performed as described above in the competition ELISA protocol (see Example 5).
The residual supernatants were discarded and 20 μl HRP-labeled anti-lipocalin-mutein antibody was added at a predetermined optimal concentration in PBS-T/BSA and incubated for 1 h at RT. […] After washing, 20 μl fluorogenic HRP substrate (Quantablue, Pierce) was added to each well, and the reaction was allowed to proceed for 60 minutes. The fluorescence intensity of every well on the plate was read using a Genios Plus Microplate reader (Tecan).
In general terms: In an ELISA, binding on a coated surface is turned into a signal by an enzyme label.

B1: human angiopoietin-1 (Ang-1) (ligand, UniProt Q15389 20-498, looked up)
chain: SNQRRSPENSGRRYNRIQHGQCAYTFILPEHDGNCRESTTDQYNTNALQRDAPHVEPDFSSQKLQHLEHVMENYTQWLQKLENYIVENMKSEMAQIQQNAVQNHTATMLEIGTSLLSQTAEQTRKLTDVETQVLNQTSRLEIQLLENSLSTYKLEKQLLQQTNEILKIHEKNSLLEHKILEMEGKHKEELDTLKEEKENLQGLVTRQTYIIQELEKQLNRATTNNSVLQKQQLELMDTVHNLVNLCTKEGVLLKGGKREEEKPFRDCADVYQAGFNKSGIYTIYINNMPEPKKVFCNMDVNGGGWTVIQHREDGSLDFQRGWKEYKMGFGNPSGEYWLGNEFIFAITSQRQYMLRIELMDWEGNRAYSQYDRFHIGNEKQNYRLYLKGHTGTAGKQSSLILHGADFSTKDADNDNCMCKCALMLTGGWWFDACGPSNLNGMFYTAGQNHGKLNGIKWHYFKGPSYSLRSTTMMIRPLDF
notes: also called hAng-1; human Ang-1
As a reminder, the IC50 is the midpoint of a concentration-inhibition curve. Low values mean higher potency, high ones lower potency. B1 had an IC50 of more than 100 nM.
